Test results published in patent US7439017B2, “Assays for measuring nucleic acid binding proteins and enzyme activities” (BioVeris Corporation, priority 1998, dated 2008).

Tested on: RuBpy-labeled Sheep anti-mouse IgG coated beads
Assay: ECL-based assay for the measurement of protease activity
Type: biochemical
Settings: in words, 30 minutes at 37° C., solution phase, FIG. 9
Method: This assay system consists of a ruthenylated (RuBpy-labeled) substrate immobilized on paramagnetic beads and the enzyme of interest. The RuBpy label is released by the action of the enzyme. The ECL of the free label is measured using the ORIGEN Analyzer (IGEN International).
Dynabead® M280 Sheep anti-mouse IgG coated beads (IGEN International, Inc.) were RuBpy-labeled at a 200:1 challenge ratio of RuBpy to IgG to introduce RuBpy groups on the immobilized IgG molecules. The labeling was carried out using a derivative of RuBpy linked to an NHS ester (TAG-NHS, IGEN International) according to established procedures. The beads were then washed three times, thirty minutes each, at 4° C. with equal volumes of PBS, pH 7.8, and once overnight at 4° C. Replicate test samples were prepared with 100 μl of solutions containing known amounts of Proteinase K (Sigma) in phosphate buffered saline, pH 7.8 and 25 μl of 1.2 mg/ml TAG labeled Sheep anti-mouse beads. […] The reaction was quenched by the addition of 1 mL of a solution containing tripropylamine (ORIGEN Assay Buffer, IGEN International, Inc.) and the protease activity was quantitated on the ORIGEN 1.5 Analyzer with the solution phase default settings (i.e., the beads are kept in suspension so as to preferentially measure ECL at the electrode from RuBpy groups in solution) except for high vortex speed.

B1: Proteinase K: Proteinase K (Sigma), protease measured in the ECL assay (protein, UniProt P06873 106-384, looked up)
Proteinase K: AAQTNAPWGLARISSTSPGTSTYYYDESAGQGSCVYVIDTGIEASHPEFEGRAQMVKTYYYSSRDGNGHGTHCAGTVGSRTYGVAKKTQLFGVKVLDDNGSGQYSTIIAGMDFVASDKNNRNCPKGVVASLSLGGGYSSSVNSAAARLQSSGVMVAVAAGNNNADARNYSPASEPSVCTVGASDRYDRRSSFSNYGSVLDIFGPGTSILSTWIGGSTRSISGTSMATPHVAGLAAYLMTLGKTTAASACRYIADTANKGDLSNIPFGTVNLLAYNNYQA
- ECL signal as a function of the concentration of enzyme: directly related to the concentration of enzyme
